Values quoted from earlier work, collected in US20230129812A1, “COMPOSITIONS AND METHODS FOR TREATING PULMONARY HYPERTENSION” (Acceleron Pharma Inc., priority 2020, published 2023).

T1: ActA (Homo sapiens, UniProt P08476)
T1 sequence (P08476 311-426): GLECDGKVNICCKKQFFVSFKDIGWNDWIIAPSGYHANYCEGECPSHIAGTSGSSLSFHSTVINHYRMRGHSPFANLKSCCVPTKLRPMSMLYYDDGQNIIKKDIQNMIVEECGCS

T2: GDF11 (Homo sapiens, UniProt O95390)
T2 sequence (O95390 299-407): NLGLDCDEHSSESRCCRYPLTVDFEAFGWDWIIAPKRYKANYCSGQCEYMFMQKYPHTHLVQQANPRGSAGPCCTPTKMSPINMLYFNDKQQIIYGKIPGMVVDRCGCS


Experiments:
[1] = biological target: T1, ActA; parameters: key to ActA binding relative to WT: *: No observed binding; −−: <⅕ WT binding; −: ~½ WT binding; +: WT; ++: <2x increased binding; +++: ~5x increased binding; ++++: ~10x increased binding; +++++: ~40x increased binding; conditions: cited from earlier work; for ActA binding relative to WT: Table 11, reproduced from WO2006/012627; for ratio of activin A (ActA) binding to GDF11 binding, relative to the wild-type K74 molecule: WO2006/012627
[2] = biological target: T2, GDF11; parameters: key: *: No observed binding; −−: <⅕ WT binding; −: ~½ WT binding; +: WT; ++: <2x increased binding; +++: ~5x increased binding; ++++: ~10x increased binding; +++++: ~40x increased binding; conditions: Table 11, reproduced from WO2006/012627; cited from earlier work

| Molecule | ActA binding relative to WT [1] | ratio of activin A (ActA) binding to GDF11 binding, relative to the wild-type K74 molecule [1] | GDF11 binding relative to WT [2] |
| --- | --- | --- | --- |
| K74Y: soluble ActRIIB-Fc variant, as reported in WO2006/012627 (protein, left off: a dimerising Fc or GST) SGRGEAETRECIYYNANWELERTNQSGLERCEGEQDKRLHCYASWANSSGTIELVYKGCWLDDFNCYDRQECVATEENPQVYFCCCEGNFCNERFTHLPEA | * | decrease | −− (<⅕ WT binding) |
| D54A: soluble ActRIIB-Fc variant, as reported in WO2006/012627 (protein, left off: a dimerising Fc or GST) SGRGEAETRECIYYNANWELERTNQSGLERCEGEQAKRLHCYASWANSSGTIELVKKGCWLDDFNCYDRQECVATEENPQVYFCCCEGNFCNERFTHLPEA | − (~½ WT binding) |  | * |
| D80A: soluble ActRIIB-Fc variant, as reported in WO2006/012627 (protein, left off: a dimerising Fc or GST) SGRGEAETRECIYYNANWELERTNQSGLERCEGEQDKRLHCYASWANSSGTIELVKKGCWLADFNCYDRQECVATEENPQVYFCCCEGNFCNERFTHLPEA | * |  | * |
| D80K: soluble ActRIIB-Fc variant, as reported in WO2006/012627 (protein, left off: a dimerising Fc or GST) SGRGEAETRECIYYNANWELERTNQSGLERCEGEQDKRLHCYASWANSSGTIELVKKGCWLKDFNCYDRQECVATEENPQVYFCCCEGNFCNERFTHLPEA | * |  | * |
| K74A: soluble ActRIIB-Fc variant, as reported in WO2006/012627 (protein, left off: a dimerising Fc or GST) SGRGEAETRECIYYNANWELERTNQSGLERCEGEQDKRLHCYASWANSSGTIELVAKGCWLDDFNCYDRQECVATEENPQVYFCCCEGNFCNERFTHLPEA | +++++ (~40x increased binding) |  |  |
| D80G: soluble ActRIIB-Fc variant, as reported in WO2006/012627 (protein, left off: a dimerising Fc or GST) SGRGEAETRECIYYNANWELERTNQSGLERCEGEQDKRLHCYASWANSSGTIELVKKGCWLGDFNCYDRQECVATEENPQVYFCCCEGNFCNERFTHLPEA | * |  | * |
| K74I: soluble ActRIIB-Fc variant, as reported in WO2006/012627 (protein, left off: a dimerising Fc or GST) SGRGEAETRECIYYNANWELERTNQSGLERCEGEQDKRLHCYASWANSSGTIELVIKGCWLDDFNCYDRQECVATEENPQVYFCCCEGNFCNERFTHLPEA | * | decrease | −− (<⅕ WT binding) |
| WT (64R): soluble ActRIIB-Fc, wild type with 64R, as reported in WO2006/012627 (protein, left off: a dimerising Fc or GST) SGRGEAETRECIYYNANWELERTNQSGLERCEGEQDKRLHCYASWRNSSGTIELVKKGCWLDDFNCYDRQECVATEENPQVYFCCCEGNFCNERFTHLPEA |  |  | (+++) (~5x increased binding) |
| R40A: soluble ActRIIB-Fc variant, as reported in WO2006/012627 (protein, left off: a dimerising Fc or GST) SGRGEAETRECIYYNANWELEATNQSGLERCEGEQDKRLHCYASWANSSGTIELVKKGCWLDDFNCYDRQECVATEENPQVYFCCCEGNFCNERFTHLPEA | − (~½ WT binding) |  | − (~½ WT binding) |
| E37A: soluble ActRIIB-Fc variant, as reported in WO2006/012627 (protein, left off: a dimerising Fc or GST) SGRGEAETRECIYYNANWALERTNQSGLERCEGEQDKRLHCYASWANSSGTIELVKKGCWLDDFNCYDRQECVATEENPQVYFCCCEGNFCNERFTHLPEA | * |  | * |
| D80F: soluble ActRIIB-Fc variant, as reported in WO2006/012627 (protein, left off: a dimerising Fc or GST) SGRGEAETRECIYYNANWELERTNQSGLERCEGEQDKRLHCYASWANSSGTIELVKKGCWLFDFNCYDRQECVATEENPQVYFCCCEGNFCNERFTHLPEA | * |  | * |
| D80R: soluble ActRIIB-Fc variant, as reported in WO2006/012627 (protein, left off: a dimerising Fc or GST) SGRGEAETRECIYYNANWELERTNQSGLERCEGEQDKRLHCYASWANSSGTIELVKKGCWLRDFNCYDRQECVATEENPQVYFCCCEGNFCNERFTHLPEA | * |  | * |
| R56A: soluble ActRIIB-Fc variant, as reported in WO2006/012627 (protein, left off: a dimerising Fc or GST) SGRGEAETRECIYYNANWELERTNQSGLERCEGEQDKALHCYASWANSSGTIELVKKGCWLDDFNCYDRQECVATEENPQVYFCCCEGNFCNERFTHLPEA | * |  | * |
| K55A: soluble ActRIIB-Fc variant, as reported in WO2006/012627 (protein, left off: a dimerising Fc or GST) SGRGEAETRECIYYNANWELERTNQSGLERCEGEQDARLHCYASWANSSGTIELVKKGCWLDDFNCYDRQECVATEENPQVYFCCCEGNFCNERFTHLPEA | ++ (<2x increased binding) |  | * |
| L79A: soluble ActRIIB-Fc variant, as reported in WO2006/012627 (protein, left off: a dimerising Fc or GST) SGRGEAETRECIYYNANWELERTNQSGLERCEGEQDKRLHCYASWANSSGTIELVKKGCWADDFNCYDRQECVATEENPQVYFCCCEGNFCNERFTHLPEA | + |  | * |
| D80I: soluble ActRIIB-Fc variant, as reported in WO2006/012627 (protein, left off: a dimerising Fc or GST) SGRGEAETRECIYYNANWELERTNQSGLERCEGEQDKRLHCYASWANSSGTIELVKKGCWLIDFNCYDRQECVATEENPQVYFCCCEGNFCNERFTHLPEA | * | decrease | −− (<⅕ WT binding) |
| W78A: soluble ActRIIB-Fc variant, as reported in WO2006/012627 (protein, left off: a dimerising Fc or GST) SGRGEAETRECIYYNANWELERTNQSGLERCEGEQDKRLHCYASWANSSGTIELVKKGCALDDFNCYDRQECVATEENPQVYFCCCEGNFCNERFTHLPEA | * |  | * |
| K74F: soluble ActRIIB-Fc variant, as reported in WO2006/012627 (protein, left off: a dimerising Fc or GST) SGRGEAETRECIYYNANWELERTNQSGLERCEGEQDKRLHCYASWANSSGTIELVFKGCWLDDFNCYDRQECVATEENPQVYFCCCEGNFCNERFTHLPEA | * | decrease | −− (<⅕ WT binding) |
| +15tail: soluble ActRIIB-Fc variant with the 15 amino acid tail, as reported in WO2006/012627 (protein, left off: a dimerising Fc or GST) SGRGEAETRECIYYNANWELERTNQSGLERCEGEQDKRLHCYASWANSSGTIELVKKGCWLDDFNCYDRQECVATEENPQVYFCCCEGNFCNERFTHLPEAGGPEVTYEPPPTAPT | (+++) (~5x increased binding) |  | (++++) (~10x increased binding) |
